Consider 41 sequences from the nanobody polyreactivity screen of Harvey et al. (2022).

This data set in a line: yeast display, Sf9 membrane polyspecificity reagent, FACS + sequencing; frameworks hold sequencing errors. Put shortly: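 Polyreactivity labels are assigned by the sorting gate from which each nanobody was recovered. The gates were low and high (top ~1%), set on anti-HA fluorescence for expression and streptavidin fluorescence for reagent binding. Before sorting, galactose-induced (36–48 hours) yeast display cells were stained for 1 hour at 4 °C with 10% biotinylated, detergent-solubilized Sf9 membrane reagent.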
For “QVQLVESGGGLVQAGGSLRLSCAASGTFFIYAMGWYRPAPGKERELVDTISTGGSTNYADSVKGRFTISRDNAKNTVYLQMNSLKPEDTAVYSCAAEWLYPHDGGYPRPMDYWGQGTQVTVSS”, the “polyreactivity (PSR sort gate)” value is “low polyreactivity”.
“QVHLVESGGGLVQAGGSLRLSCAASGRTFKHYAMGWYRQEPGKERELVAAITSGGSTYYADSVKGLFTISRDNAKNPVYLQMNSLKPEDTAVYYCNTESFFDTYRRYDSWGQGTQVTVSS”: the “polyreactivity (PSR sort gate)” value is on record as “low polyreactivity”.
In the case of “QVQLVESGGGLVQAGGSLRLSCAASGRIFGNNVMGWYRQAPGKERELVASINYSGGSTYYADSVKGRFTISRDNAKNTVYLQMNSLKPEDTAVYYCARSYGWYPWRTSYTVGFYYWGQGTQVTVSS” it was “high polyreactivity”; in that of “QVQLVESGGGLVQAGGSLRLSCAASGSTFRHYAMGWYRQQPGKERELVAAISSRGGSTYYADSVKGRFTISRDNAKNTVYLQMNSLKPEDTAVYYCNVVGYLRPSYRHMDYWGQGTQVTVSS”, “high polyreactivity”; in that of “QVQLVESGGGLVQAGGSLRLSCAASGSIFGEYAMGWYRQAPGKERELVADITTGGNTNYADSVKGRFTISRDNAKNTVYLQMNSLKPEDSAVYYCYAFGNTYGYWWFGYWGQGTQVTVSS”, “low polyreactivity”.
In the case of “QVQLVESGGGLVQAGGSLRLSCAASGRTFAANTMGWYRQAPGKERELVAAINSGGSTYYADSVKGRFTISRDNAKNTVYLHMNSLKPEATAVYYCAVSWWEVPRIFGYSSRYDYWGQGTQVTVSS” it was “high polyreactivity”; in that of “QVQLVESGGGLVQAGGSLRLSCAASGRIFWTNAMGWYRQAPGKERELVAAISYNGASTFYADSVKGRFTISRDNAKNTVYLQMNSLKPEDTAVYYCNAYSSRYRYNYWGQGTQVTVSS”, “high polyreactivity”.
In the case of “QDQLVDSGGGLVQAGGSLRLSSSASGLIFYKYAMGWYRQAPGKERELVAAISSSGGSTYYADSVKGRFTISRDTAKITVYLQMNSLKPDDTAVYYCAARTNRRGYNYWGQGTQVTVSS” it was “high polyreactivity”; in that of “QVQLVESGGGLVQAGGSLRLSCAASGSTFGVNAMGWYRQAPGKERELVAAIRSAVPTYYADSVKGRFTISRDNAKNTVYLQMNSLKPEDTAVYYCAKRWSAKYGFYYWGQGTQVTVSS”, “high polyreactivity”; in that of “QVQLVESGGGLVQAGGSLRLSCAASGGTFGQYAMGWYRLAPGKERELVAAITSSGGRTYYADSVKGRFTISRDNAKNTVYLQMNSLKPEDTAVYYCAADVQSRYVGEGDYWGQGTQVTVSS”, “high polyreactivity”.
For “QVQLVESGVGLVQAGGSLRLSCAASGSTFGGNAMGWYRQAPGKEREKVADITFSGGSTSYADSVKGRFTISRDNAKKTVYLQMNSLKPEDTAVYYCNRDYPEIIVAGLDYWGQGSQVTVSS”, the “polyreactivity (PSR sort gate)” value is reported as “low polyreactivity”.
Turning to “QVQLVESGGGLVQAGGSLLLSCAASGFIFGLNAMGWYRQAPGKERELVAAIRSASSTNYADSVKGRFTISRDNAKNTVYLQMNSLKPEDTAVYYCAAEYVTYQQGFWGYDYWGQGTQVTVSS”, the “polyreactivity (PSR sort gate)” value is on record as “low polyreactivity”.
In the case of “QVHLVESGGGLVQAGGSLRLTCAASGSIFRFYTMGWYRPATGKERELVATISRGGSTNYADSVKGRFTISRDNAKNSVSLQMNSLKPEVTGVYYCNFGALYSTYWGYGYDYWGQGTQVTVSS” it was “high polyreactivity”.
The result for “QVQLVESGGGLVQAVGSLRLTCAASGSIFGHYAMGLSRHAPGKDRELVAAISASTGRTYNADSVKGRFTISRDNAKNPVYLQMNSLKPEDTAFYYCAVRVHWTIWDYYYWGQGTQVTVSS” reads “high polyreactivity”; that for “QVQLVESGGGLVQAGGSLRLSCAASAFIYSFNAMGWYSQAPGKERELVAAISRSGGSTRYADSVKGRFTISRDTAKNTVYLQMNSLKPEYTAVYYCATDASPVRKRYDYWGQGTQVTVSS”, “high polyreactivity”; that for “QVQLVESGGGLVQAGGSLRLSCAASGSTFVYYDMGGYRPAPGKERELVADISDSGGSTNYADSVKGRFTISRDNAKNTVYLHMNSLKPEDTAVYYCAADSADPTEYDYWGQGTQVTVSS”, “low polyreactivity”.
In the case of “QVQLVESGGGLVQAGGSLRLSCAASGLIYVGNAMGWYRQAPGKERELVAAISSRGGRTYYADSVKGRFTISRDNAKNSVYLQMNSLKPEDSAVYYCNAANSQWGFEYWGQGTQVTVSS” it was “high polyreactivity”; in that of “QVQLVESGGGLVQAGGSLRLSCASSGRIFNGNTMGWYRQAPGKERELVAGITGSSGSTYYADSVKGRFTISRDNANNSVYLPMNSLKPEDTGVYYCAAGRRYRCVGYGYWGQGTQVTVSS”, “high polyreactivity”; in that of “QVQLVESGAGLVQAGGSLRLSCAASGFIFWRNTMGWYRQAPGKERELVAVITRGGSTYYADSVKGRFTISRDNAKNTVYLQMNSLKPVDTAVYYCNADNVVEGYDRRSARASYRYYYWGQGTQVTVSS”, “low polyreactivity”.
For the sequence “QVQLVESGAGLVQAGGSLRLSCAASGRTFGRYAMAWYRQAPGKERELVAAINNGGGTYYADSVKGLFTISRDNAKNTVYLLINSLYPEDTAVYYCAAATRKRVGSYYYWGQGTQVTVSS”, the “polyreactivity (PSR sort gate)” value is “high polyreactivity”.
On to “QVQLVESGGGLVQAGGSLRLSCAASGRISVFYTRGWYRQAPGKERELVAVIRTSGGRTNYADSVKGRFTISRDNAKNTVYLQMNSLKPEDTAVYYCAARVVRYGYKYYYWGQGTQVTVSS”, for which the “polyreactivity (PSR sort gate)” value is given as “low polyreactivity”.
The result for “QVQLVESGGGLVQAGGSLRLSCAASGRIFPVNTMGWYREAPGKERELVAAITSGGGTYYADSVKGRFTISRDNAKNTVYLQMNSLKPEDTAVYYCNAPEGRKPYDSWGQGTQVTVSS” reads “low polyreactivity”; that for “QDQLVESGGGLVQAGGSLRLSCAASGSIFTRYTMGWYRQAPGKERELVATISSRGDGTYYADSVKGRFTISRDNAKNTVYLQMNSLKPEDTAVYYCAARYRRVHSGYGYWGQGTQVTVSS”, “high polyreactivity”.
Take “QVQLVESGRGLVQAGGSLRLSCAASGIIFVKYAMGWYRQAPGKERELVAAISTRGGSTYYADSVKGRFTISRDNAKNTVYLQMNSLNPEDTAVYYCADDATRKSQLPNTVPYDYWGQGTQVTVSS”: the “polyreactivity (PSR sort gate)” value is reported as “high polyreactivity”.
In the case of “QVQLVESGGGLVQAGGSLRLSCAACGSTFIPNGMGLYRQAPGKERELVAAITQDGGSTYYADSVKGRFTISRDNAKNTVYLQMNSLKPEDTAVYYCAASAGPYYEYGYWGQGTQVTVSS”, the “polyreactivity (PSR sort gate)” value was “low polyreactivity”.
The result for “QVQLVESGGGLVQAGGSLRLSCAASGSTFDSYVMGLYRQAPGKERELFAAISSDDSTYYADSVKGRFTISRDNAKNTVYLQMNSLKPEDTAVYYCAATNFRDYYWSWKYYYWGQGTQVTVSS” reads “low polyreactivity”.
In the case of “QDQLVESGGGIVQAGGSLRLSCAASGSTIFYYAMGWYRQAPGKERELVAASSQRGGSTRYADSVKGRFTISRDNAKNTVYLQINSLKPEDSAVYYCAAARSPYKYSYWGQGTQVTVSS” it was “high polyreactivity”.
Turning to “QVQLVESGGGFVQAGGSLRLSCAASGSILRSYAMGWYRQAPGKERELVAVINGSGGRTYYADSVKGRFTISRDNAKNTVYLQMNSLKPEDTAVYYCNADPGGRYPRRGYAHEGDYWGQGTQVTVSS”, the “polyreactivity (PSR sort gate)” value is on record as “low polyreactivity”.
The result for “QVQLVDSGGGIVQAGGSLRLSCAASGFIIAHYAMGWYRHAPGKERELVAAISWNGGRTYYADSVKGRFTISRDNAKNSVFFQRISLKPEDTAVYYCAADNRGTTVYYRNYYWGQGTQVTVSS” reads “high polyreactivity”; that for “QVQLVESGGGLVQAGGSLRLRCAASGRTFRYYAMGWYRQAPGKERELVAVINYRGGSTYYADSVKGRFTISRDNEKNTVYLQMNSLKPEDTAVYYCAAQYIGWHLYWYDYWGQGTQVTVSS”, “low polyreactivity”; that for “QVQLVESGGGLVQAGGSLRLSCAASGSTFGYYAMGWYRPAPGKERELVAAISSSAGTTYYADSVKGCFTISRDNAKNTVYLLMNRLKPEDTAVFYCAADAVSGHEYWGQGTQVTVSS”, “low polyreactivity”.
The result for “QVQPVESAGGLVQAGGSLRLSCAASGSTFARYAMGWFSQAPGKERELVAVITWTGGSTYADSVKGRFTISRDNAKNTVYLQMNSLNPEDTAVYYCNAVHATRRRLGYWGQGTQVTVSS” reads “low polyreactivity”; that for “QVQLVESGGGLVQAGGSLRLSCAASGRTFAYNTMGWYRQAPGKERELVAAITSGGNTYYADSVKGRFTISRDNAKNTVYLQMNSLKPEDTAVYYCARYFTARLEGGYWGQGTQVTVSS”, “high polyreactivity”; that for “QVQLVESGGGLVQAGGSLRLSCAASGSILVLNDMGWYRQAPGKERELVATITSGGNTYYADSVKGRFTISRDNAKNTVYLQMNSLKPEDTAVYYCNARWQRPYDYWGQGTQVTVSS”, “low polyreactivity”.
For “QVQLVESGGSLVQAGGSLRLSCSASGFIFYTNAMGWYRQAPGKERELVAAISSRGTRTYYADSVKGRFTISRDNAKNSVYLQLNSLKPEDTAVYYCAVRTRYLGLEYYYWGQGSQVTVSS”, the “polyreactivity (PSR sort gate)” value is “high polyreactivity”.
In the case of “QVQLVESGGGLVQAGGSLRLSCAASGLIFYDNMGWYRQAPGNERELVAAITVSGGATYYADSVKGRFTISRDNAKNTVYLQMNSLKPEDTAVYYCARELLSPTYQRWYYYWGQGTQVTVSS” it was “low polyreactivity”; in that of “QVQLVESGGGLVQAGGSLRLSCAASGFIFVDYAMGWYRQAPGKERELVAAISSSGSTTYADSVKGRFTISRDNAKNIVYLKMNSLKPEDTAVYYCAAGLPRVLKDATFDYWGQGTQVTVSS”, “low polyreactivity”; in that of “QVQLVESGGGLVQAGGSLRLSCAASGSIFDGYAMGWYRQAPGKEREFVAAITKRTGRTYYADSVKGRFTISRDNAKNTVYLQMNSLKPEDTAVYYCAAAIPRFSAGHYDYCGQGTQVTVSS”, “high polyreactivity”.
As to “QVQLVESGGGLVQAGGSLRLSCAASGSTFYDNAMGWYRQAPGKERELVARIRWSGVRTYYADSVKGRFTISRDNAKNTVYLQMISLKPEDTAVYYCAAGRPRPHWWSLDYYYWGQGTQVTVSS”, the “polyreactivity (PSR sort gate)” value is listed as “low polyreactivity”.
The result for “QVQLVESGGGLVQAGGSLRLSCAASGSTFVGYAMGWYRQAPGTERDLVAAISSSGSTNYADSVKGRFTISRDNAKNTVYLQMNSLKPEDTAVYYCAALYSYFWLIIDYGYWGQGTQVTVSS” reads “low polyreactivity”; that for “QVQLVESGGGLVQAGGSLRLSCAASGIYGFYAMGWYRQPPRKQRELVAAISSVTSTYYADSVKGRFTISRDNAKNTVYLQMNSLKPEDTAVYYCNAYLYSGGLSYDYWGQGTQVTVSS”, “low polyreactivity”.
